Measured values as given in publication PMC4493999.

Molecular target: anaphase-promoting complex/cyclosome (APC/C) complex (human (endogenous in HeLa)) (UniProt P30260)
Assay: co-IP

Sequence of UniProt P30260 (P30260 whole entry, looked up, one chain of several): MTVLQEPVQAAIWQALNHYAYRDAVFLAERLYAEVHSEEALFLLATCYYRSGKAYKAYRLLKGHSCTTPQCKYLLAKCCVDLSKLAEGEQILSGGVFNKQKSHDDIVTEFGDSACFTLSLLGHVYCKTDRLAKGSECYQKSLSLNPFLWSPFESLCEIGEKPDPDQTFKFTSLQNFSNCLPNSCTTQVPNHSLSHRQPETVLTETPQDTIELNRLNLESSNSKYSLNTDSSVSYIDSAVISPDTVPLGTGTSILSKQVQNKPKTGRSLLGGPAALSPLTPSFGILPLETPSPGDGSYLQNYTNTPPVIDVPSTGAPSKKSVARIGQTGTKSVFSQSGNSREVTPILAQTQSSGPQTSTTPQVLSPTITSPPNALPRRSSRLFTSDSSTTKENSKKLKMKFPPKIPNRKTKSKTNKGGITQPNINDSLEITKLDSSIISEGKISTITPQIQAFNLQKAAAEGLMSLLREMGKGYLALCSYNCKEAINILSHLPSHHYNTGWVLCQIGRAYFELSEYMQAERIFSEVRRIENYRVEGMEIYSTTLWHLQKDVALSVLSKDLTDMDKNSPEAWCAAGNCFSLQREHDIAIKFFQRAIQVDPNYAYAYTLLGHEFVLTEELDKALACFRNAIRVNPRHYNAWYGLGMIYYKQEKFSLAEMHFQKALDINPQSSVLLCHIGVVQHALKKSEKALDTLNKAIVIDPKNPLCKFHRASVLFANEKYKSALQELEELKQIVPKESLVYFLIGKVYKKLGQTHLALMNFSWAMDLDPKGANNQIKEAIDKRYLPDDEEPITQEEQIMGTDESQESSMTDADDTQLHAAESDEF

“HA-tagged human Cdh1 S40D (from UniProt Q9UM11 1-496) (natural protein)” gave an amount coprecipitated, percent of that of Cdh1 S40A of 20% and an amount coprecipitated, percent of that of wild-type Cdh1 of 30%.
